Laboratory results published in patent publication US20120121587A1 (Chugai, published 2012).
Residue numbers refer to the chain shown, from its start.

T1: Human recombinant AXL-FND1 (GST-FND1), from pET-41b(+) (human, UniProt P30530 225-331)
T1 construct: Expressed in E. coli, purified on Glutathione Sepharose; analyte in all Biacore measurements; GST put first by the usual layout of pET-41; not shown: GST-tag of vector pET-41b(+) (Novagen)
T1 sequence (looked up): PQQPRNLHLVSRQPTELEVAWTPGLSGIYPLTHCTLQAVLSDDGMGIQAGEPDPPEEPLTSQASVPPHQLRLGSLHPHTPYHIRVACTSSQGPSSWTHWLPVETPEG

B1: H48/L0 (antibody, human IgG1, kappa)
heavy: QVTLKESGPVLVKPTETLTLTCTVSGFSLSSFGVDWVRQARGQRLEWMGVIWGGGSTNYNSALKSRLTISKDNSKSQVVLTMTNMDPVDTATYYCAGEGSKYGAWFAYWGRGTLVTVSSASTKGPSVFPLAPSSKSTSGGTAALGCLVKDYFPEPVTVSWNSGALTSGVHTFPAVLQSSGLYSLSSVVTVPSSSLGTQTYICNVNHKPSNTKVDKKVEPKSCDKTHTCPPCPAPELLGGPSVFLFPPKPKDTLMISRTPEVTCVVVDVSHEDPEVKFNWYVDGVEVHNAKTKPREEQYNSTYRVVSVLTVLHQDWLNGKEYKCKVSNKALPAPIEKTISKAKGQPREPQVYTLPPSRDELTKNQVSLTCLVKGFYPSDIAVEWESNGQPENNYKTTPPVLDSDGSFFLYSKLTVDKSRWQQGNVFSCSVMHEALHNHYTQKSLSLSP
light: DVVMTQSPLSLPVTLGQPASISCRSSQNIVHTNGNTYLEWYQQKPGKAPELLIYKVSNRFSGVPDRFSGSGSGTDFTLKISRVEAEDVGVYYCFQGSHIPFTFGQGTKLEIKRTVAAPSVFIFPPSDEQLKSGTASVVCLLNNFYPREAKVQWKVDNALQSGNSQESVTEQDSKDSTYSLSSTLTLSKADYEKHKVYACEVTHQGLSSPVTKSFNRGEC
B2: H47/L28 (antibody, human IgG1, kappa)
heavy: not shown
light: B1 light with E50K
B3: H50/L35 (antibody, human IgG1, kappa)
heavy: not shown
light: B1 light with Q27R, E50K, Q105R
B4: H47/L35 (antibody, human IgG1, kappa)
heavy: not shown
light: B1 light with Q27R, E50K, Q105R
B5: H46/L28 (antibody, human IgG1, kappa)
heavy: not shown
light: B1 light with E50K
B6: H47/L27 (antibody, human IgG1, kappa)
heavy: not shown
light: B1 light with Q27R
B7: H49/L34 (antibody, human IgG1, kappa)
heavy: not shown
light: B1 light with Q17R, Q27R, E50K
B8: H48/L1 (antibody, human IgG1, kappa)
heavy: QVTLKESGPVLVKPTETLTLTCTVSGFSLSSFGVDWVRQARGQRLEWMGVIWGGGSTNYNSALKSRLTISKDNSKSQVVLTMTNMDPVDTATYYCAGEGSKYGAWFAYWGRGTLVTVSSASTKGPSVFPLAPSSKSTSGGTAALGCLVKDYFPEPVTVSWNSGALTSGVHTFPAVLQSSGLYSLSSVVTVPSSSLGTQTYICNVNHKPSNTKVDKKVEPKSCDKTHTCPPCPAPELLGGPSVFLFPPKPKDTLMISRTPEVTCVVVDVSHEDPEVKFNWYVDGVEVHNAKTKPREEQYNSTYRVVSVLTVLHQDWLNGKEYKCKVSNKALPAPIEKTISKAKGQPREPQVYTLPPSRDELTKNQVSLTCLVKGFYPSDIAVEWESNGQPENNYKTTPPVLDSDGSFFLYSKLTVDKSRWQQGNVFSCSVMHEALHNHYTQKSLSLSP
light: B1 light with R24Q
B9: H46/L35 (antibody, human IgG1, kappa)
heavy: not shown
light: B1 light with Q27R, E50K, Q105R
B10: H49/L11 (antibody, human IgG1, kappa)
heavy: not shown
light: B1 light with R24Q, L109V, K112E
B11: H46/L34 (antibody, human IgG1, kappa)
heavy: not shown
light: B1 light with Q17R, Q27R, E50K
B12: H49/L28 (antibody, human IgG1, kappa)
heavy: not shown
light: B1 light with E50K
B13: H50/L28 (antibody, human IgG1, kappa)
heavy: not shown
light: B1 light with E50K
B14: H46/L27 (antibody, human IgG1, kappa)
heavy: not shown
light: B1 light with Q27R
B15: H50/L37 (antibody, human IgG1, kappa)
heavy: not shown
light: B1 light with Q17R, Q27R, E50K, Q105R
B16: H49/L1 (antibody, human IgG1, kappa)
heavy: not shown
light: B1 light with R24Q
B17: H48/L31 (antibody, human IgG1, kappa)
heavy: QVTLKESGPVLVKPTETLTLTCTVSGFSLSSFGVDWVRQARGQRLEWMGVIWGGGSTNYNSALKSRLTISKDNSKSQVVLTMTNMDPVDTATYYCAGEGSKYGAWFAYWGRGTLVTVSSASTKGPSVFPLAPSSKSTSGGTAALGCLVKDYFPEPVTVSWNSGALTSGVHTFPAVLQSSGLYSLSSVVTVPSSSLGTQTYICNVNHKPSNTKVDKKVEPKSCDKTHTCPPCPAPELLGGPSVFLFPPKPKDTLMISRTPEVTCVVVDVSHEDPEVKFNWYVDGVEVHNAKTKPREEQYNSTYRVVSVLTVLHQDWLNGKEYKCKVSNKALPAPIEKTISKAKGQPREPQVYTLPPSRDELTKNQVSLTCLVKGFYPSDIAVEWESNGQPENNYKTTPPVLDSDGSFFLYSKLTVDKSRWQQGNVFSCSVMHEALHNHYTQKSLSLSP
light: B1 light with Q27R, E50K
B18: H50/L10 (antibody, human IgG1, kappa)
heavy: not shown
light: B1 light with L109V, K112E
B19: H48/L35 (antibody, human IgG1, kappa)
heavy: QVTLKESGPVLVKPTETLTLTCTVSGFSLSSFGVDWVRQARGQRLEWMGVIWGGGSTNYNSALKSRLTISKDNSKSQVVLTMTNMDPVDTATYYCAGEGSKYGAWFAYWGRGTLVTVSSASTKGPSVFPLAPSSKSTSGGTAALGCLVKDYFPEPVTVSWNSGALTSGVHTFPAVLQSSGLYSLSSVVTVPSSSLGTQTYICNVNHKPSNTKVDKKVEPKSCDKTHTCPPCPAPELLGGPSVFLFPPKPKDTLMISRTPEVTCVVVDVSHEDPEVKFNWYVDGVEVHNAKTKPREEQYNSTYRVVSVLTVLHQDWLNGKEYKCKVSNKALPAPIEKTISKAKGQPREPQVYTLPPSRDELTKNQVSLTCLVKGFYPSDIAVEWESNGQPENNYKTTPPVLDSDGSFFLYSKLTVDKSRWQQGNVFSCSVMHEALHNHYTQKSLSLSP
light: B1 light with Q27R, E50K, Q105R
B20: H48/L11 (antibody, human IgG1, kappa)
heavy: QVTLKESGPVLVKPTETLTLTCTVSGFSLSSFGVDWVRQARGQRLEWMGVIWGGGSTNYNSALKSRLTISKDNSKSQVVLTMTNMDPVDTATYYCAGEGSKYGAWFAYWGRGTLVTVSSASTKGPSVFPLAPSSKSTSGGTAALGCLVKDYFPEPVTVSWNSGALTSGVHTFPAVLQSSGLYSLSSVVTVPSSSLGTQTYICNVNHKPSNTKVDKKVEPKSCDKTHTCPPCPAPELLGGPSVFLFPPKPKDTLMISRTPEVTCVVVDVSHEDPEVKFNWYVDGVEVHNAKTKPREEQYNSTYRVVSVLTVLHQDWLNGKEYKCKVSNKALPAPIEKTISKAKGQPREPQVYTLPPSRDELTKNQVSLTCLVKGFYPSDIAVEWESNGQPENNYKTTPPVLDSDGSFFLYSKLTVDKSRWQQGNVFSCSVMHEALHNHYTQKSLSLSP
light: B1 light with R24Q, L109V, K112E
B21: H48/L28 (antibody, human IgG1, kappa)
heavy: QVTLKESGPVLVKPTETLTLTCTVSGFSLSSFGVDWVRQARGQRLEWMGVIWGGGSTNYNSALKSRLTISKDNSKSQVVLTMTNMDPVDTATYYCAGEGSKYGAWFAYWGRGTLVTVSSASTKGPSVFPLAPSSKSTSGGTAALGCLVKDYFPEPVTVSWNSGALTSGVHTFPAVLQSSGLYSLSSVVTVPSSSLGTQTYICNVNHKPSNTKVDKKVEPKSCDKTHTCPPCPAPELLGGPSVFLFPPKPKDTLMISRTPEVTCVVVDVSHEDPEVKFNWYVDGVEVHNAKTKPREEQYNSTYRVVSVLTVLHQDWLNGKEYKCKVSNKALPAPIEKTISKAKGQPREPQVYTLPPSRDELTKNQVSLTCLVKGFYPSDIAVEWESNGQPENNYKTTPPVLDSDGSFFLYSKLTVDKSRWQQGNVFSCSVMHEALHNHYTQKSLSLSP
light: B1 light with E50K
B22: H49/L10 (antibody, human IgG1, kappa)
heavy: not shown
light: B1 light with L109V, K112E
B23: H49/L27 (antibody, human IgG1, kappa)
heavy: not shown
light: B1 light with Q27R
B24: H47/L34 (antibody, human IgG1, kappa)
heavy: not shown
light: B1 light with Q17R, Q27R, E50K
B25: H49/L35 (antibody, human IgG1, kappa)
heavy: not shown
light: B1 light with Q27R, E50K, Q105R
B26: H49/L0 (antibody, human IgG1, kappa)
heavy: not shown
light: B1 light
B27: H48/L27 (antibody, human IgG1, kappa)
heavy: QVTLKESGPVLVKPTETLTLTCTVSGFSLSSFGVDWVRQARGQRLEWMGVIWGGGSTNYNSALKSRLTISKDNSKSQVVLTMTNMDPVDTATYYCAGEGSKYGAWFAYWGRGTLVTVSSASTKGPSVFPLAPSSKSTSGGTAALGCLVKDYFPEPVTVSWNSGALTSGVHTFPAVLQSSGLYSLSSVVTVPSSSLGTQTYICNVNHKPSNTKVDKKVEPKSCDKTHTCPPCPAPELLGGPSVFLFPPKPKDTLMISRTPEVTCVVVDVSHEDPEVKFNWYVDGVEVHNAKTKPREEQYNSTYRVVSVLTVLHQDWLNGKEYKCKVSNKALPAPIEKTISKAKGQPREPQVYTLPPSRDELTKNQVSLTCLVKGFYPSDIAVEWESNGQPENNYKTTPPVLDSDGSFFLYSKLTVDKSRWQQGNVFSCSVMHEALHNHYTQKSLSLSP
light: B1 light with Q27R
B28: H50/L0 (antibody, human IgG1, kappa)
heavy: not shown
light: B1 light
B29: H48/L34 (antibody, human IgG1, kappa)
heavy: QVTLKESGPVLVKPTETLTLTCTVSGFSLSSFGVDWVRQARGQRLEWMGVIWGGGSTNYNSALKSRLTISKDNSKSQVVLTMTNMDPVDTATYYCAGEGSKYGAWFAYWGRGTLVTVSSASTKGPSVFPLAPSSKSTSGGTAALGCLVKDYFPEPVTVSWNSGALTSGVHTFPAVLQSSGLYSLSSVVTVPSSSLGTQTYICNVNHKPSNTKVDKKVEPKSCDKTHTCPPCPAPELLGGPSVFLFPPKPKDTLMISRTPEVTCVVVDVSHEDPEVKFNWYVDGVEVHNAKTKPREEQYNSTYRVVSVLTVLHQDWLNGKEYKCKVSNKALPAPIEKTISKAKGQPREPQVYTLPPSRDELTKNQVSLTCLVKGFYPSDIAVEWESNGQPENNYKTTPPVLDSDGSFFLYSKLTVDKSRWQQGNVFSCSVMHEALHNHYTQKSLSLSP
light: B1 light with Q17R, Q27R, E50K
B30: H46/L37 (antibody, human IgG1, kappa)
heavy: not shown
light: B1 light with Q17R, Q27R, E50K, Q105R
B31: H47/L37 (antibody, human IgG1, kappa)
heavy: not shown
light: B1 light with Q17R, Q27R, E50K, Q105R
B32: H47/L31 (antibody, human IgG1, kappa)
heavy: not shown
light: B1 light with Q27R, E50K
B33: H50/L11 (antibody, human IgG1, kappa)
heavy: not shown
light: B1 light with R24Q, L109V, K112E
B34: H48/L10 (antibody, human IgG1, kappa)
heavy: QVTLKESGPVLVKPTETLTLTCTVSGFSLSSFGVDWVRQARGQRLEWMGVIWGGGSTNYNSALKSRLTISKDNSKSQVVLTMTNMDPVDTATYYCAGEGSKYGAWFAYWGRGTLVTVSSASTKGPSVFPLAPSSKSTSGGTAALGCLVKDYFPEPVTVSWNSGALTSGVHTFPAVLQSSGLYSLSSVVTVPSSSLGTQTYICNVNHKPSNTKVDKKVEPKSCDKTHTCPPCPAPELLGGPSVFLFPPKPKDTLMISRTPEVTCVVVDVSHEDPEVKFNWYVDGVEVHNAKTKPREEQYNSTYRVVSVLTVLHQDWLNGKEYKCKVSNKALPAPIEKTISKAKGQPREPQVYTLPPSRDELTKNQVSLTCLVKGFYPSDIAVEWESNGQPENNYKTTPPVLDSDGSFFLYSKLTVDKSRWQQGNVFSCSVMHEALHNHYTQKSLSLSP
light: B1 light with L109V, K112E
B35: H47/L10 (antibody, human IgG1, kappa)
heavy: not shown
light: B1 light with L109V, K112E
B36: H50/L31 (antibody, human IgG1, kappa)
heavy: not shown
light: B1 light with Q27R, E50K
B37: H47/L0 (antibody, human IgG1, kappa)
heavy: not shown
light: B1 light
B38: H49/L31 (antibody, human IgG1, kappa)
heavy: not shown
light: B1 light with Q27R, E50K
B39: H48/L37 (antibody, human IgG1, kappa)
heavy: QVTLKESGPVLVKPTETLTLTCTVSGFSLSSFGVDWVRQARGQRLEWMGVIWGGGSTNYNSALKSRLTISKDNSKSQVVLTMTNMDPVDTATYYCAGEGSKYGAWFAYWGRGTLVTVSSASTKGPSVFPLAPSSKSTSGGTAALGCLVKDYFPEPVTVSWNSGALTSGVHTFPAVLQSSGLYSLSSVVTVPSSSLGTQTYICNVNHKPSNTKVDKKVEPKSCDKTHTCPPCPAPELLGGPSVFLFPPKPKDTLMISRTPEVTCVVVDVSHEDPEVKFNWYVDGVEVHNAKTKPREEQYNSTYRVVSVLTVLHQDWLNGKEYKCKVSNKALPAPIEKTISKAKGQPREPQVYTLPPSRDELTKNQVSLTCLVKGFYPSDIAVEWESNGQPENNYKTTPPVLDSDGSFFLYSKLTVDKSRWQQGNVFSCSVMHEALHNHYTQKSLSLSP
light: B1 light with Q17R, Q27R, E50K, Q105R
B40: H50/L1 (antibody, human IgG1, kappa)
heavy: not shown
light: B1 light with R24Q
B41: H49/L37 (antibody, human IgG1, kappa)
heavy: not shown
light: B1 light with Q17R, Q27R, E50K, Q105R
B42: H46/L31 (antibody, human IgG1, kappa)
heavy: not shown
light: B1 light with Q27R, E50K
B43: H50/L27 (antibody, human IgG1, kappa)
heavy: not shown
light: B1 light with Q27R
B44: H47/L11 (antibody, human IgG1, kappa)
heavy: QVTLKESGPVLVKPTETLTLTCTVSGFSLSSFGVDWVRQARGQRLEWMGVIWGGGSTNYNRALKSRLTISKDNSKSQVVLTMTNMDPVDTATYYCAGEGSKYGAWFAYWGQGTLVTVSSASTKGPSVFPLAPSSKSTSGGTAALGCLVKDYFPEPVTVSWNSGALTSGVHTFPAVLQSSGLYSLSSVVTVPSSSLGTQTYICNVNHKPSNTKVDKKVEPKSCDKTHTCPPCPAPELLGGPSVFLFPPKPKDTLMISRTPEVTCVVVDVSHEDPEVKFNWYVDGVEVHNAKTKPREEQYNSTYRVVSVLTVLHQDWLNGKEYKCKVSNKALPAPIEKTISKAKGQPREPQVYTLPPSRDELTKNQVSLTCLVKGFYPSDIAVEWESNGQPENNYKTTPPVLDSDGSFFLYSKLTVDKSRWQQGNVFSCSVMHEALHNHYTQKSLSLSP
light: B1 light with R24Q, L109V, K112E
B45: H50/L34 (antibody, human IgG1, kappa)
heavy: not shown
light: B1 light with Q17R, Q27R, E50K
B46: H47/L1 (antibody, human IgG1, kappa)
heavy: not shown
light: B1 light with R24Q
B47: H9/L36 (antibody, human IgG1, kappa, V domains shown)
VH: QVTLKESGPVLVKPTETLTLTCTVSGFSLSSFGVDWVRQAPGKGLEWMGVIWGGGSTNYNSALKSRLTISKDNSKSQVVLTMTNMDPVDTATYYCAGEGSKYGAWFAYWGQGTLVTVSS
VL: DVVMTQSPLSLPVTLGQPASISCRSSQNIVHTNANTYLEWYQQKPGKAPELLIYKVSNRFSGVPDRFSGSGSGTDFTLKISRVEAEDVGVYYCFQGSHIPFTFGQGTKLEIKR
B48: H32/L21 (antibody, human IgG1, kappa, V domains shown)
VH: B47 VH with S61E, K64Q, S65D, Q111E
VL: B47 VL with R24Q, L109V, K112E

Target: T1, Human recombinant AXL-FND1 (GST-FND1), …
Assay: SPR (Biacore T100): antibody captured on Protein A, GST-FND1 as analyte
Procedure, shortened: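 Antibodies (1 μg/mL) were captured for 2 min on a Protein A CM5 chip. GST-FND1 (0.5 and 2.0 μg/mL) in HBS-EP+ was flowed at 30 μL/min with 2 min association and 2 min dissociation at 25° C. ka and kd were fitted from sensorgrams and Kd was calculated from them.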

B1 and B2 are within 1.5-fold of each other in Kd: 2.09 nM for the first, 1.52 nM for the second.

B3 and B4 are within 1.5-fold of each other in Kd: 2.24 nM for the first, 1.68 nM for the second.

B5 and B6 are within 1.5-fold of each other in Kd: 1.86 nM for the first, 1.6 nM for the second.

B7 and B8 are within 1.5-fold of each other in Kd: 2.21 nM for the first, 2.09 nM for the second.

B9 and B10 are within 1.5-fold of each other in Kd: 2.04 nM for the first, 1.92 nM for the second.

B11 and B12 are within 1.5-fold of each other in Kd: 2.22 nM for the first, 2.11 nM for the second.

B13 and B14 are within 1.5-fold of each other in Kd: 1.97 nM for the first, 1.9 nM for the second.

B15 and B16 are within 1.5-fold of each other in Kd: 2.72 nM for the first, 1.91 nM for the second.

B17 and B18 are within 1.5-fold of each other in Kd: 1.98 nM for the first, 1.9 nM for the second.

B19 and B20 are within 1.5-fold of each other in Kd: 2.07 nM for the first, 2 nM for the second.

B21 and B22 are within 1.5-fold of each other in Kd: 2.07 nM for the first, 2.05 nM for the second.

B23 and B24 are within 1.5-fold of each other in Kd: 2.08 nM for the first, 2.2 nM for the second.

B25 and B26 are within 1.5-fold of each other in Kd: 2.08 nM for the first, 2.06 nM for the second.

B27 and B28 are within 1.5-fold of each other in Kd: 1.99 nM for the first, 1.89 nM for the second.

B29 and B30 are within 1.5-fold of each other in Kd: 2.27 nM for the first, 2.3 nM for the second.

B31 and B32 are within 1.5-fold of each other in Kd: 2.38 nM for the first, 1.83 nM for the second.

B33 and B34 are within 1.5-fold of each other in Kd: 1.82 nM for the first, 2.06 nM for the second.

B35 and B36 are within 1.5-fold of each other in Kd: 1.89 nM for the first, 1.93 nM for the second.

B37 and B38 are within 1.5-fold of each other in Kd: 1.84 nM for the first, 1.94 nM for the second.

B39 and B40 are within 1.5-fold of each other in Kd: 2.19 nM for the first, 1.86 nM for the second.

B41 and B42 are within 1.5-fold of each other in Kd: 2.43 nM for the first, 1.9 nM for the second.

B43 and B44 are within 1.5-fold of each other in Kd: 1.95 nM for the first, 1.83 nM for the second.

B45 and B46 are within 1.5-fold of each other in Kd: 2.36 nM for the first, 1.89 nM for the second.

Target: T1, Human recombinant AXL-FND1 (GST-FND1), …
Assay: as above
Remark: another data set of the same source
Method: Kinetic analyses of antigen-antibody reactions of humanized AXL antibodies were carried out using Biacore T100 (BIACORE). rec-Protein A (Zymed) (hereinafter, Protein A) was immobilized onto a sensor chip, various antibodies were bound to it, then an antigen as the analyte was flushed to measure the antibody-antigen interaction. Human recombinant AXL-FND1 (prepared in 2-2; hereinafter referred to as GST-FND1) prepared at various concentrations was used as the antigen. From the sensorgrams obtained through the measurements, kinetic parameters, namely binding rate constant kₐ (1/Ms) and dissociation rate constant kd (1/s), were calculated, and Kd (M) was calculated based on these values. Biacore T100 Evaluation Software (BIACORE) was used to calculate each of the parameters.
The sensor chips were produced by immobilizing approximately 3000 RU of Protein A onto CM5 (BIACORE) by amine coupling. Using the produced sensor chip, kinetic analyses were carried out on the interaction between the Protein A-bound antibodies and GST-FND1. HBS-EP+ was used as the running buffer, and the flow rate was set to 30 μL/min. Each antibody was prepared at 1 μg/mL using the running buffer, and was subjected to binding with Protein A for two minutes. GST-FND1 as the analyte was prepared at 0.5 and 2.0 μg/mL using HBS-EP+. Measurements were carried out by first binding the various humanized AXL antibodies, chimeric AXL antibodies, or mouse AXL antibodies of interest to Protein A, then applying an analyte solution to them for a two-minute interaction, and then switching to HBS-EP+ (BIACORE) for a two-minute measurement of the dissociation phase. After completion of measurement of the dissociation phase, 30 μL of 10 mM glycine-HCl (pH 2.0) was used for washing to regenerate the sensor chip. Such binding, dissociation, and regeneration were defined as one cycle of analysis. All experiments were performed at 25° C.
Affinity measurements on the produced variants were carried out by the method of Example 2.

B47 and B48 are within 1.5-fold of each other in Kd: 3.6 nM for the first, 3.81 nM for the second.
